Experimental data: paper PMC9482650, “Quantitative fragmentomics allow affinity mapping of interactomes” (Nature Communications, 2022)

What was measured:
Assay in all cases: holdup assay
Design in all cases: key: below the threshold = too weak to quantify, mostly under pKd 3.1 to 4
Settings in all cases: plain residues with an end cap or a label only (N-terminal biotin on a linker: ado-ado)
GRIP1_3, Q9Y3R0 = target: T1, GRIP1_3, Q9Y3R0
T1 sequence (Q9Y3R0 247-346, limits assumed, looked up): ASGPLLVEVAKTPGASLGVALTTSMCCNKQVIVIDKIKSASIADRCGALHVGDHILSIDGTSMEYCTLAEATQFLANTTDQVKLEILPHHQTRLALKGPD

PTPN3, P26045 = target: PTPN3, P26045
DLG1_2, Q12959 = target: DLG1_2, Q12959
LNX2_3, Q8N448 = target: T2, LNX2_3, Q8N448
T2 sequence (Q8N448 463-564, limits assumed, looked up): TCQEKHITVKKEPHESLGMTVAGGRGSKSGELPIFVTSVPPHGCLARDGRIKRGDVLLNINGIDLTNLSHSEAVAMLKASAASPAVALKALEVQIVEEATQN

SCRIB_3, Q14160 = target: SCRIB_3, Q14160
MAGI3_2, Q5TCQ9 = target: MAGI3_2, Q5TCQ9
DLG2_3, Q15700 = target: DLG2_3, Q15700
HTRA2, O43464 = target: HTRA2, O43464
DLG1_3, Q12959 = target: DLG1_3, Q12959
Inadl_4, Q8NI35 = target: Inadl_4, Q8NI35
GRIP2_5, Q9C0E4 = target: GRIP2_5, Q9C0E4
MAGI2_6, Q86UL8 = target: MAGI2_6, Q86UL8
RADIL, Q96JH8 = target: T3, RADIL, Q96JH8
T3 sequence (Q96JH8 971-1071, limits assumed, looked up): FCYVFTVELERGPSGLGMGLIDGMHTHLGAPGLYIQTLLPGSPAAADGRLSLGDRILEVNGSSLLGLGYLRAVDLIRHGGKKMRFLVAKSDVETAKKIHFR

NHERF4_2, Q86UT5 = target: NHERF4_2, Q86UT5
GRIP2_3, Q9C0E4 = target: GRIP2_3, Q9C0E4
MAGI2_2, Q86UL8 = target: MAGI2_2, Q86UL8
MPDZ_10, O75970 = target: T4, MPDZ_10, O75970
T4 sequence (O75970 1624-1722, limits assumed, looked up): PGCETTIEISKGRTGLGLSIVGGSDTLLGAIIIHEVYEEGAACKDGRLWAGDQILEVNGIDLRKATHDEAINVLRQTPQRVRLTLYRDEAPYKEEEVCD

FRMPD2_2, Q68DX3 = target: FRMPD2_2, Q68DX3
GRIP1_5, Q9Y3R0 = target: T5, GRIP1_5, Q9Y3R0
T5 sequence (Q9Y3R0 568-668, limits assumed, looked up): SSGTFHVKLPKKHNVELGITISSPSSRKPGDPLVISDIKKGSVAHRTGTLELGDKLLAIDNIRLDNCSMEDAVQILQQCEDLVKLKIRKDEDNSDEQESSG

SNTA1, Q13424 = target: T6, SNTA1, Q13424
T6 sequence (Q13424 82-180, limits assumed, looked up): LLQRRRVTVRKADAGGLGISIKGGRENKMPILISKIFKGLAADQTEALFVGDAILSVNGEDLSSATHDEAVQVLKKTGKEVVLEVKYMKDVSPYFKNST

GORASP1, Q9BQQ3 = target: GORASP1, Q9BQQ3
Inadl_1, Q8NI35 = target: Inadl_1, Q8NI35
MAGI2_5, Q86UL8 = target: MAGI2_5, Q86UL8
ARHGEF11, O15085 = target: T7, ARHGEF11, O15085
T7 sequence (O15085 42-136, limits assumed, looked up): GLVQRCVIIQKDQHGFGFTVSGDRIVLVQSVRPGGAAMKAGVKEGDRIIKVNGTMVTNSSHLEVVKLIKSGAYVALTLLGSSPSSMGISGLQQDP

NHERF3_1, Q5T2W1 = target: T8, NHERF3_1, Q5T2W1
T8 sequence (Q5T2W1 4-100, limits assumed, looked up): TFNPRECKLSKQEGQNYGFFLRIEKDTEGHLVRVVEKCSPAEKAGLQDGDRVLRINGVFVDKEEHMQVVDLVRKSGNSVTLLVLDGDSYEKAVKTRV

DFNB31_3, Q9P202 = target: T9, DFNB31_3, Q9P202
T9 sequence (Q9P202 811-907, limits assumed, looked up): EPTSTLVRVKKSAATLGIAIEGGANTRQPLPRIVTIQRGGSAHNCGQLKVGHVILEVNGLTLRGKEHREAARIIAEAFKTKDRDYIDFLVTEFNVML

CARD11, Q9BXL7 = target: T10, CARD11, Q9BXL7
T10 sequence (Q9BXL7 662-765, limits assumed, looked up): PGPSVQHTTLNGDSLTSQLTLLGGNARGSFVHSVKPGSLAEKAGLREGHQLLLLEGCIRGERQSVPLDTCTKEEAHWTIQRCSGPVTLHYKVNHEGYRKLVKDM

Chain of MAGI2_6, Q86UL8 (Q86UL8 1141-1229): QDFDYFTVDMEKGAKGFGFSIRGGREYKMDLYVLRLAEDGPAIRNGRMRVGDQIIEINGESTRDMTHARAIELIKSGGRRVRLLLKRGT
Chain of GORASP1, Q9BQQ3 (Q9BQQ3 1-208): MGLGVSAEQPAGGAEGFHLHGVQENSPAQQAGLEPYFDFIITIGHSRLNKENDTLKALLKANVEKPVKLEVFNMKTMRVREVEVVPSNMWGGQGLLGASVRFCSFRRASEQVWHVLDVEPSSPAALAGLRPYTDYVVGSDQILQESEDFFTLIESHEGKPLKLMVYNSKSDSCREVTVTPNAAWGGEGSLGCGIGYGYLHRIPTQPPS
Chain of FRMPD2_2, Q68DX3 (Q68DX3 944-1038): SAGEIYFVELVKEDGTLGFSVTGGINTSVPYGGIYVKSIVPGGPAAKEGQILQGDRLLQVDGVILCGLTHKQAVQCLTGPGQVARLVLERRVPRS
Chain of GRIP2_5, Q9C0E4 (Q9C0E4 544-642): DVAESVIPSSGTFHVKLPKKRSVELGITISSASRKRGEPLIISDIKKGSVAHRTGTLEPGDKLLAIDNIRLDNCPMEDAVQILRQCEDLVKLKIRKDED
Chain of GRIP2_3, Q9C0E4 (Q9C0E4 238-339): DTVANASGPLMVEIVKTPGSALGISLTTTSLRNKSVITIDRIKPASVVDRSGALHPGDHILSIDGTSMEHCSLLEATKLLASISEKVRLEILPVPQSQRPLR
Chain of MAGI2_2, Q86UL8 (Q86UL8 410-522): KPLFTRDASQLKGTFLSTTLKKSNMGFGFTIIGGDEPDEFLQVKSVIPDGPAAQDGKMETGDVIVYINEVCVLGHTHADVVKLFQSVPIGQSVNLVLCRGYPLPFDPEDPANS
Chain of MAGI2_5, Q86UL8 (Q86UL8 915-1017): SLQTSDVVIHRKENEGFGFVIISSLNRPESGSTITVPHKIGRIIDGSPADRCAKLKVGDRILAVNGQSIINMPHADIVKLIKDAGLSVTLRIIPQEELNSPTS
Chain of MAGI3_2, Q5TCQ9 (Q5TCQ9 398-503): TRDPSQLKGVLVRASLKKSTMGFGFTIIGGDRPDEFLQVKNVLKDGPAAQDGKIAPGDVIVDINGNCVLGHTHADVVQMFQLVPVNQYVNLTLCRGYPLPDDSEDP
Chain of SCRIB_3, Q14160 (Q14160 999-1103): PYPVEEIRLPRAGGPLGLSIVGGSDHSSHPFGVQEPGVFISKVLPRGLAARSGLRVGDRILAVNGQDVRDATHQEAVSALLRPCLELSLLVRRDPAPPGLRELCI
Chain of DLG1_2, Q12959 (Q12959 314-412): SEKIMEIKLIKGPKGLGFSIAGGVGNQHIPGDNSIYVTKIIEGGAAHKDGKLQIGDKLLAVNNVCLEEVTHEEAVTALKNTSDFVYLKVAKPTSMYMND
Chain of PTPN3, P26045 (P26045 505-587): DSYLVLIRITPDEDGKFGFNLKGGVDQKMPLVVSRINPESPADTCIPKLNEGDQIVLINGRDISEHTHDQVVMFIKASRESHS
Chain of Inadl_1, Q8NI35 (Q8NI35 113-229): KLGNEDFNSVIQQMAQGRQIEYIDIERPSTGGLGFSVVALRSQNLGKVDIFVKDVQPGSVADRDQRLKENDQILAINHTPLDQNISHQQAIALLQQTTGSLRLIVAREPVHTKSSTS
Chain of Inadl_4, Q8NI35 (Q8NI35 547-651): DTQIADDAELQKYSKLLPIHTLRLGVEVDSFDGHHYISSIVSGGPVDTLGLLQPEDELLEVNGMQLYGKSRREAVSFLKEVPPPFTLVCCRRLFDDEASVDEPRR
Chain of DLG1_3, Q12959 (Q12959 457-571): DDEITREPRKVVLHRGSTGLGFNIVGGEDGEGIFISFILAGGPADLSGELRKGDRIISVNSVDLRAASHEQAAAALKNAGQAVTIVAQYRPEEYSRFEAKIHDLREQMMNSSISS
Chain of HTRA2, O43464 (O43464 355-458): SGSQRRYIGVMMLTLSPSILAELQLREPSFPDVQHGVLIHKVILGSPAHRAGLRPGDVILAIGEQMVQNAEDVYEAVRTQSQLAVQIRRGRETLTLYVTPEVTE
Chain of NHERF4_2, Q86UT5 (Q86UT5 220-308): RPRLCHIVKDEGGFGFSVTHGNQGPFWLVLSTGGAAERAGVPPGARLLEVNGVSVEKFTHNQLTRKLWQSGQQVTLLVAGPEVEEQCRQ

Binder: SMLNRRTTPV [CACNG4, Q9UBN1]
- pKd (GRIP1_3, Q9Y3R0): below the threshold
- pKd (PTPN3, P26045): 4.54
- pKd (DLG1_2, Q12959): 4.98
- pKd (LNX2_3, Q8N448): below the threshold
- pKd (SCRIB_3, Q14160): 4.11
- pKd (MAGI3_2, Q5TCQ9): 5.19
- pKd (DLG2_3, Q15700): 4.89
- pKd (HTRA2, O43464): below the threshold
- pKd (DLG1_3, Q12959): 4.39
- pKd (Inadl_4, Q8NI35): below the threshold
- pKd (GRIP2_5, Q9C0E4): below the threshold
- pKd (MAGI2_6, Q86UL8): below the threshold
- pKd (RADIL, Q96JH8): below the threshold
- pKd (NHERF4_2, Q86UT5): below the threshold
- pKd (GRIP2_3, Q9C0E4): below the threshold
- pKd (MAGI2_2, Q86UL8): 5.03
- pKd (MPDZ_10, O75970): 3.92
- pKd (FRMPD2_2, Q68DX3): 3.55
- pKd (GRIP1_5, Q9Y3R0): below the threshold
- pKd (SNTA1, Q13424): 3.86
- pKd (GORASP1, Q9BQQ3): below the threshold
- pKd (Inadl_1, Q8NI35): below the threshold
- pKd (MAGI2_5, Q86UL8): below the threshold
- pKd (ARHGEF11, O15085): 3.89
- pKd (NHERF3_1, Q5T2W1): below the threshold
- pKd (DFNB31_3, Q9P202): below the threshold
- pKd (CARD11, Q9BXL7): below the threshold

Binder: LSEFKAMDSF [CTNNA2, P26232]
- pKd (GRIP1_3, Q9Y3R0): below the threshold
- pKd (PTPN3, P26045): below the threshold
- pKd (DLG1_2, Q12959): below the threshold
- pKd (LNX2_3, Q8N448): below the threshold
- pKd (SCRIB_3, Q14160): below the threshold
- pKd (MAGI3_2, Q5TCQ9): below the threshold
- pKd (DLG2_3, Q15700): 3.72
- pKd (HTRA2, O43464): below the threshold
- pKd (DLG1_3, Q12959): below the threshold
- pKd (Inadl_4, Q8NI35): below the threshold
- pKd (GRIP2_5, Q9C0E4): below the threshold
- pKd (MAGI2_6, Q86UL8): below the threshold
- pKd (RADIL, Q96JH8): below the threshold
- pKd (NHERF4_2, Q86UT5): below the threshold
- pKd (GRIP2_3, Q9C0E4): below the threshold
- pKd (MAGI2_2, Q86UL8): below the threshold
- pKd (MPDZ_10, O75970): below the threshold
- pKd (FRMPD2_2, Q68DX3): below the threshold
- pKd (GRIP1_5, Q9Y3R0): below the threshold
- pKd (SNTA1, Q13424): below the threshold
- pKd (GORASP1, Q9BQQ3): below the threshold
- pKd (Inadl_1, Q8NI35): below the threshold
- pKd (MAGI2_5, Q86UL8): below the threshold
- pKd (ARHGEF11, O15085): below the threshold
- pKd (NHERF3_1, Q5T2W1): below the threshold
- pKd (DFNB31_3, Q9P202): below the threshold
- pKd (CARD11, Q9BXL7): below the threshold

Binder: EEDTAEKDEL [HSPA5, P11021]
- pKd (GRIP1_3, Q9Y3R0): below the threshold
- pKd (PTPN3, P26045): below the threshold
- pKd (DLG1_2, Q12959): below the threshold
- pKd (LNX2_3, Q8N448): 3.53
- pKd (SCRIB_3, Q14160): below the threshold
- pKd (MAGI3_2, Q5TCQ9): 4.48
- pKd (DLG2_3, Q15700): below the threshold
- pKd (HTRA2, O43464): below the threshold
- pKd (DLG1_3, Q12959): 3.77
- pKd (Inadl_4, Q8NI35): below the threshold
- pKd (GRIP2_5, Q9C0E4): below the threshold
- pKd (MAGI2_6, Q86UL8): below the threshold
- pKd (RADIL, Q96JH8): below the threshold
- pKd (NHERF4_2, Q86UT5): below the threshold
- pKd (GRIP2_3, Q9C0E4): below the threshold
- pKd (MAGI2_2, Q86UL8): 3.48
- pKd (MPDZ_10, O75970): below the threshold
- pKd (FRMPD2_2, Q68DX3): below the threshold
- pKd (GRIP1_5, Q9Y3R0): below the threshold
- pKd (SNTA1, Q13424): below the threshold
- pKd (GORASP1, Q9BQQ3): below the threshold
- pKd (Inadl_1, Q8NI35): below the threshold
- pKd (MAGI2_5, Q86UL8): below the threshold
- pKd (ARHGEF11, O15085): 3.56
- pKd (NHERF3_1, Q5T2W1): below the threshold
- pKd (DFNB31_3, Q9P202): 4.19
- pKd (CARD11, Q9BXL7): below the threshold
